Test results: US20090175866A1, “TREATMENT OF B-CELL MALIGNANCIES” (priority 2004, published 2009)

Assays:
WT FGFR3 [1] = biological target: T1, WT FGFR3 (Homo sapiens, UniProt P22607); test: Flow cytometry binding of PRO-001 Fab to B9-FGFR3^WT cells, with or without FGF
T1 construct: expressed in transfected cells; host or cells: B9 cells
Source text: FIG. 1A is a flow cytometry chart showing B9-FGFR WT (wild type) cells fluorescently labeled with PRO 001 followed by a PE-conjugated anti-human secondary antibody. The filled histogram indicates parental B9 cells (lacking FGFR3 expression); the dotted light line, B9-FGFR WT without aFGF; the solid dark line, B9-WT in the presence of aFGF. The Y axis represents counts indicating the amount of cells. The X axis represents fluorescence intensity.
Cells (5×10^5) were washed in cold phosphate-buffered saline (PBS) and then incubated for 30 minutes with one of the following: PRO-001 Fab or a human Fab control antibody, rabbit anti-FGFR3 (100) or rabbit preimmune serum in PBS. The cells were then stained with PE-conjugated goat antihuman F(ab′)2 secondary antibody or goat anti-rabbit IgG-PE for 30 minutes on ice. Flow cytometry was performed on a FACSCaliber flow cytometer (BD Biosciences, San Jose, Calif.) and analyzed using Cellquest software (Becton Dickinson). To assess the ability of FGF ligand to compete for binding, cells were incubated in the presence or absence of 30 ng/ml FGF and 5 μg/ml heparin for 30 minutes and then stained with PRO-001 Fab as describe above.
The human anti-FGFR3 Fab PRO-001 was isolated from the Hu-CAL®-Fab-1 human combinatorial library using a differential whole cell panning approach (Rauchenberger R, et al. J Biol. Chem. 2003; 278:38194-205). […]

WT FGFR3 [2] = biological target: T1, WT FGFR3; test: Ligand-stimulated receptor phosphorylation in RCJ-FGFR3 cells (immunoprecipitation, Western blot); type: cell-based
Method: FIG. 1C is a photograph of a Western blot showing immune staining of RCJ-FGFR3 cell lysates. RCJ cells were stimulated with FGF (+) with or without pre-incubation with a Fab. Lane 1—no FGF stimulation and no pre-incubation with a Fab. Lane 2—FGF stimulation, no pre-incubation with a Fab. Lane 3—FGF stimulation and pre incubation with a control (C) antibody. Lane 4—FGF stimulation and pre-incubation with an anti-FGFR3 (001) Fab.
Non-transformed rat chondrocyte cell line expressing PGFR3 in an inducible manner (RCJ-FGFR3) has been described previously (Rauchenberger R. et al. J. Biol. Chem. 2003; 278:38194-205). Cells were maintained in α-Minimum Essential Media supplemented with 15% fetal calf serum (FCS), 2 mM L-Glutamine, 100 U/ml penicillin, 100 μg/ml streptomycin, 600 μg/ml G418 (Gibco BRL, Ontario, Canada), 2 μg/ml Tetracyclin (Sigma, Ontario, Canada), and 50 μg/ml HygromycinB (Gibco BRL). […]
Cells were lysed in lysis buffer (50 mM Tris/HCl, pH 8.0, 150 mM […], 0.1 mM ZnCl2, 0.5% Nonidet NP-40, 1 mg/ml, complete protease inhibitor mix (Roche Molecular Biochemicals, Mannheim, Germany)), and clarified by centrifugation at 12,000×g for 15 minutes. The lysates were subjected to immunoprecipitation for 16 hours at 4° C. with anti-FGFR3 (C15) and analyzed by 7.5% sodium dodecyl-polyacrylamide gel electrophoresis (SDS-PAGE) and Western blot with anti-phosphotyrosine (4G10 from R&D). […]

T1 sequence (P22607 23-806): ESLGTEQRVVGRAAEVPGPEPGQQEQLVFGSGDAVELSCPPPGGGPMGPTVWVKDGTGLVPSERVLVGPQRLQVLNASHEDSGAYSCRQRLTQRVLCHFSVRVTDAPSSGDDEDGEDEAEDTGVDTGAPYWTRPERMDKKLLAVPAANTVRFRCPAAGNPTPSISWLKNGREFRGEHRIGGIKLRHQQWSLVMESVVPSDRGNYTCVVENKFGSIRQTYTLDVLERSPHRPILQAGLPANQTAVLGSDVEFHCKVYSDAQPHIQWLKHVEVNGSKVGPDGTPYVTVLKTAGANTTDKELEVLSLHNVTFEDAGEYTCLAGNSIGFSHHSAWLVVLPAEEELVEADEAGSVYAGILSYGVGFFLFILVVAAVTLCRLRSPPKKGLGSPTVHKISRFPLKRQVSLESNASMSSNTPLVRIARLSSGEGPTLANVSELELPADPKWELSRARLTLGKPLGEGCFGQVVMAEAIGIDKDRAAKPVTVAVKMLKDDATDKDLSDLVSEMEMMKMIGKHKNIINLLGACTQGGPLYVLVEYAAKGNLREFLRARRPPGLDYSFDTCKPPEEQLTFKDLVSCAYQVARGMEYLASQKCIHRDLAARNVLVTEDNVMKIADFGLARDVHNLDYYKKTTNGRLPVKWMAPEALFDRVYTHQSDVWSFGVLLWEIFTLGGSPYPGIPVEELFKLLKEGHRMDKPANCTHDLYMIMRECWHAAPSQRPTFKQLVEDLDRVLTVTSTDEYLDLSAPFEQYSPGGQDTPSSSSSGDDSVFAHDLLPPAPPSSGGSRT

B1: PRO-001: human anti-FGFR3 Fab from HuCAL library; VH-CDR3 SEQ ID NO:1, VL-CDR3 SEQ ID NO:10; VH SEQ ID NO:19, VL SEQ ID NO:28 (antibody, V domains shown)
VH: QVQLQQSGPGLVKPSQTLSLTCAISGDSVSSNSAAWNWIRQSPGRGLEWLGRTYYRSKWYNDYAVSVKSRITINPDTSKNQFSLQLNSVTPEDTAVYYCARSYYPDFDYWGQGTLVTVSS
VL: DIELTQPPSVSVAPGQTARISCSGDALGDKYASWYQQKPGQAPVLVIYDDSDRPSGIPERFSGSNSGNTATLTISGTQAEDEADYYCQSYDGPDLWVFGGGTKLTVLGQ
WT FGFR3 [1]; 30 ng/ml FGF and 5 μg/ml heparin
  Binding to B9-FGFR3^WT cells on addition of FGF: can be reduced by addition of FGF
WT FGFR3 [1]; PRO-001 Fab, B9-FGFR3^WT cells
  Binding to WT FGFR3 (FACS): binds to WT FGFR3
WT FGFR3 [2]
  Downstream JNK phosphorylation: reduction in downstream JNK phosphorylation
WT FGFR3 [2]; anti-phosphotyrosine immunoblot
  Ligand-stimulated autophosphorylation of FGFR3: inhibited
